Measured values reported in publication doi:10.1101/568972v1 (biorxiv, 2019).

Tests used:
AceKMs = target: T1, AceKMs (Mycolicibacterium smegmatis, UniProt A0QQK1); experiment: HPLC of ATP/ADP, steady-state kinetics; assay type: biochemical; details: read-out: KM (substrate); ADP in excess; 10 mM MgCl2, pH 9.0, room temperature
T1 sequence (A0QQK1 1-376): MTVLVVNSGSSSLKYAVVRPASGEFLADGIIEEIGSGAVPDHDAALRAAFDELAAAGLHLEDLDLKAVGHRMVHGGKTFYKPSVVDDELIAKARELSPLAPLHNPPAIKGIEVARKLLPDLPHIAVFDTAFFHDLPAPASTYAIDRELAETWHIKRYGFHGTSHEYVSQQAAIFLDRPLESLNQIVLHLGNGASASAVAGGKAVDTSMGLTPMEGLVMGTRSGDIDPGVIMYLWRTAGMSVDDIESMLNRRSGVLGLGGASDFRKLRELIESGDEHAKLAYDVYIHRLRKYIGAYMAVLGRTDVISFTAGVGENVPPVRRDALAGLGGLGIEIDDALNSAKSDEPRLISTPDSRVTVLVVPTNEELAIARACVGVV

[1] = substrate: NC(=O)c1ccc[n+]([C@@H]2O[C@H](COP(=O)(O)OP(=O)(O)OC[C@H]3O[C@@H](n4cnc5c(N)ncnc54)[C@H](O)[C@@H]3O)[C@@H](O)[C@H]2O)c1; experiment: purified protein, by the assay type
[2] = substrate: O=P(O)(O)OC[C@H](O)CO; experiment: purified protein, by the assay type
purified protein [3] = substrate: O=P(O)(O)OC[C@H](O)CO; experiment: purified protein; details: NAD+ co-substrate, 50 mM sodium phosphate pH 9.0, ambient temperature
[4] = substrate: OCC(O)CO; experiment: purified protein, by the assay type; details: pH 9.0
purified protein [5] = substrate: OCC(O)CO; experiment: purified protein; assay type: biochemical, Thermococcus kodakarensis; details: ATP in excess, 10 mM MgCl2, 50 mM NaHCO3 pH 9.0, room temperature
[6] = substrate: Nc1ncnc2c1ncn2[C@@H]1O[C@H](COP(=O)(O)OP(=O)(O)O)[C@@H](O)[C@H]1O; experiment: purified protein, by the assay type
purified protein [7] = substrate: O=C(CO)COP(=O)(O)O; experiment: purified protein; details: acceptor aldehyde not stated; 'DHAP' printed as table sub-heading
purified protein [8] = substrate: NC(=O)C1=CN([C@@H]2O[C@H](COP(=O)(O)OP(=O)(O)OC[C@H]3O[C@@H](n4cnc5c(N)ncnc54)[C@H](O)[C@@H]3O)[C@@H](O)[C@H]2O)C=CC1; experiment: purified protein; details: O2, 50 mM sodium phosphate pH 7, 1 mg/mL BSA, ambient temperature

Q: With CC(=O)OP(=O)(O)O [acetyl phosphate] as the molecule, how does the Km (AceKMs) read?
A: Its Km is 390 ± 8 µM.

B1: G3PDEc-NOXCa-Est2Aa (Escherichia coli K-12) (protein)
chain: MNQRNASMTVIGAGSYGTALAITLARNGHEVVLWGHDPEHIATLERDRCNAAFLPDVPFPDTLHLESDLATALAASRNILVVVPSHVFGEVLRQIKPLMRPDARLVWATKGLEAETGRLLQDVAREALGDQIPLAVISGPTFAKELAAGLPTAISLASTDQTFADDLQQLLHCGKSFRVYSNPDFIGVQLGGAVKNVIAIGAGMSDGIGFGANARTALITRGLAEMSRLGAALGADPATFMGMAGLGDLVLTCTDNQSRNRRFGMMLGQGMDVQSAQEKIGQVVEGYRNTKEVRELAHRFGVEMPITEEIYQVLYCGKNAREAALTLLGRARKDERSSH
Q: B1 was tested. Which Km [1] did it give?
A: The Km was 164 ± 10 µM.

Q: And the Km [2]?
A: Its Km is 659 ± 47 µM.

Q: And the kcat [2]?
A: Its kcat is 7 ± 0.6 s⁻¹.

Q: What about the kcat/Km [2] of the same molecule?
A: Its kcat/Km is 11000 M⁻¹ s⁻¹.

B2: G3PDEc (Escherichia coli K-12) (protein)
chain: MNQRNASMTVIGAGSYGTALAITLARNGHEVVLWGHDPEHIATLERDRCNAAFLPDVPFPDTLHLESDLATALAASRNILVVVPSHVFGEVLRQIKPLMRPDARLVWATKGLEAETGRLLQDVAREALGDQIPLAVISGPTFAKELAAGLPTAISLASTDQTFADDLQQLLHCGKSFRVYSNPDFIGVQLGGAVKNVIAIGAGMSDGIGFGANARTALITRGLAEMSRLGAALGADPATFMGMAGLGDLVLTCTDNQSRNRRFGMMLGQGMDVQSAQEKIGQVVEGYRNTKEVRELAHRFGVEMPITEEIYQVLYCGKNAREAALTLLGRARKDERSSH
Q: Which Km (purified protein [3]) does the source give for B2 here?
A: The Km was 59 ± 4 µM.

Q: And the kcat (purified protein [3])?
A: Its kcat is 85 ± 11 s⁻¹.

B3: GlpKTK-AceKMs-Est2Aa (Thermococcus kodakarensis KOD1) (protein)
chain: MEKFVLSLDEGTTSARAIIFDRESNIHGIGQYEFPQHYPRPGWVEHNPEEIWDAQLRAIKDAIQSARIEPNQIAAIGVTNQRETTLVWDKDGKPLYNAIVWQCRRTAEMVEEIKREYGTMIKEKTGLVPDAYFSASKLKWLLDNVPGLREKAEKGEVMFGTVDTFLIYRLTGEHVTDYSNASRTMLFNIKKLDWDDELLELFDIPESVLPEVRESSEVYGYTKKELLGAEIPVSGDAGDQQAALFGQAAFEAGMVKATYGTGSFILVNTDKMVLYSDNLLTTIAWGLNGRVSYALEGSIFVTGAAVQWLRDGIKIIKHASETEELATKLESNEGVYFVPAFVGLGAPYWDQFARGIIIGITRGTGREHLARATLEAIAYLTRDVVDEMEKLVQIKELRVDGGATANDFLMQFQADILNRKVIRPVVKETTALGAAYLAGLAVDYWADTREIAELWKAERIFEPKMDEKTRERLYKGWKEAVKRAMGWAKVVDSAKSN
Q: B3 was tested. Which Km [4] did it give?
A: Its Km is 16 ± 4 µM.

Q: And the kcat [4]?
A: Its kcat is 1400 ± 54 s⁻¹.

Q: What about the kcat/Km [4] of the same molecule?
A: The kcat/Km was 8.6e+07 M⁻¹ s⁻¹.

B4: GlpKTk (Thermococcus kodakarensis KOD1) (protein)
chain: MEKFVLSLDEGTTSARAIIFDRESNIHGIGQYEFPQHYPRPGWVEHNPEEIWDAQLRAIKDAIQSARIEPNQIAAIGVTNQRETTLVWDKDGKPLYNAIVWQCRRTAEMVEEIKREYGTMIKEKTGLVPDAYFSASKLKWLLDNVPGLREKAEKGEVMFGTVDTFLIYRLTGEHVTDYSNASRTMLFNIKKLDWDDELLELFDIPESVLPEVRESSEVYGYTKKELLGAEIPVSGDAGDQQAALFGQAAFEAGMVKATYGTGSFILVNTDKMVLYSDNLLTTIAWGLNGRVSYALEGSIFVTGAAVQWLRDGIKIIKHASETEELATKLESNEGVYFVPAFVGLGAPYWDQFARGIIIGITRGTGREHLARATLEAIAYLTRDVVDEMEKLVQIKELRVDGGATANDFLMQFQADILNRKVIRPVVKETTALGAAYLAGLAVDYWADTREIAELWKAERIFEPKMDEKTRERLYKGWKEAVKRAMGWAKVVDSAKSN
Q: How did the Km (purified protein [5]) turn out when B4 was run?
A: Its Km is 15 ± 2 µM.

Q: And the kcat (purified protein [5])?
A: Its kcat is 940 ± 8 s⁻¹.

B5: GlpKTk-AceKMs-Est2Aa (Mycolicibacterium smegmatis MC2 155) (protein)
chain: MTVLVVNSGSSSLKYAVVRPASGEFLADGIIEEIGSGAVPDHDAALRAAFDELAAAGLHLEDLDLKAVGHRMVHGGKTFYKPSVVDDELIAKARELSPLAPLHNPPAIKGIEVARKLLPDLPHIAVFDTAFFHDLPAPASTYAIDRELAETWHIKRYGFHGTSHEYVSQQAAIFLDRPLESLNQIVLHLGNGASASAVAGGKAVDTSMGLTPMEGLVMGTRSGDIDPGVIMYLWRTAGMSVDDIESMLNRRSGVLGLGGASDFRKLRELIESGDEHAKLAYDVYIHRLRKYIGAYMAVLGRTDVISFTAGVGENVPPVRRDALAGLGGLGIEIDDALNSAKSDEPRLISTPDSRVTVLVVPTNEELAIARACVGVV
Q: With B5 as the molecule, how does the Km [6] read?
A: Its Km is 398 ± 29 µM.

B6: FruASc (Staphylococcus carnosus subsp. carnosus TM300) (protein)
chain: NQEQFDKIKNGKGFIAALDQSGGSTPKALKDYGVEENEYSNDEEMFNLVHDMRTRIITSPAFNGEKILGAILFEQTMDREVEGKYTGSYLADKGIVPFLKVDKGLAEEADGVQLMKPIPDLDKLLDRANERGIFGTKMRSNILENNKEAIEKVVKQQFEVAKEIIAAGLVPIIEPEVNINAKDKEAIEANLAEAIKAELDNLKKDQYVMLKLTIPTKVNAYSELIEHPQVIRVVALSGGYSRDEANKILKQNDGLIASFSRALVSDLNAQQSDAEFNEKLQEAIDTIFDASVNKA
Q: What does the source list for B6?
A: Km (purified protein [7]): 500 ± 80 µM; kcat (purified protein [7]): 16 ± 2 s⁻¹

B7: NoxCa (Anaerocolumna aminovalerica) (protein)
chain: MKIVVIGCTHAGTAAVKTILKENPEAEITIFERNDNISFLSCGIALYVGGVVKDPAGLFYSNPEELSKMGANVKIKHNVKSIDTKSKKVIAEDMNTGEEIEVSYDKLVNTTGSWPIIPPIPGIESKNILLCKNYDQANVIIRQTKDAKKIVIVGGGYIGIELVEAFQKSGKQVTLIDGLDRILNKYLDKEFTDILEDDLKKNGINLALDQCVKSFKANENGEVTSVETTKGEYEADMVILCVGFRPNNELLKGKVDMLPNDAIIVDEYMRTSDPDIFAAGDSCAVHYNPNGNYAYIPLATNAVRMGMLIGKNISTPKVKYRGTQSTSGLNLFGYNIGSTGVTVSGAPQIGLNVRSVIVKDNYRPEFMPTNEEIIMQLVYEVGTNRIVGGQVMSKYDITQSANTLSLAIQNKMTIEDLAYVDFFFQPHFDRPWNYLNILGLAALEQEGL
Q: How did the Km (purified protein [8]) turn out when B7 was run?
A: Its Km is 258 ± 21 µM.

Q: And the kcat (purified protein [8])?
A: Its kcat is 1,252 ± 182 s-1.
